In US20240261333A1 (published 2024):

Assays:
Assay in all cases: anti-FLAG co-IP from lysate of N-FLAG B3GNT2 cells, mass spectrometry
PDIA4 = target: T1, PDIA4 (human, UniProt P13667 21-645)
T1 construct: also called XP_006716248.1
T1 sequence (looked up): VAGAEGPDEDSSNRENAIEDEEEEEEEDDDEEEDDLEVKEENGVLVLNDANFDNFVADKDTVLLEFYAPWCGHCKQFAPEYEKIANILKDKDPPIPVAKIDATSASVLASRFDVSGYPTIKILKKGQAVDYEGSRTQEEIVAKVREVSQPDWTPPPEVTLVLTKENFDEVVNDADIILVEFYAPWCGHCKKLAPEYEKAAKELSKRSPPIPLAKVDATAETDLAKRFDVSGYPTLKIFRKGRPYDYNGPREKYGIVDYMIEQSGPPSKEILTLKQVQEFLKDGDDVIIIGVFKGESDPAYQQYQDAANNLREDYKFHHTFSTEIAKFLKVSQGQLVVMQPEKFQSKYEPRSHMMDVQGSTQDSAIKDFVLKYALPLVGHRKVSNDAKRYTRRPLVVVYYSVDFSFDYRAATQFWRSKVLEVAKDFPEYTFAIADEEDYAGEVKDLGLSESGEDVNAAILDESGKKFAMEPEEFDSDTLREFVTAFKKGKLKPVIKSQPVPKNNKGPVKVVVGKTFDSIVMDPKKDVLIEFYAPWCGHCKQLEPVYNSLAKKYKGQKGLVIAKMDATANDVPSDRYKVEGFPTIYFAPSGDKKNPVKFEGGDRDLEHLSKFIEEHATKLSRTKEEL

RCN1 = target: T2, RCN1 (human, UniProt Q15293 30-331)
T2 construct: also called NP_002892.1
T2 sequence (looked up): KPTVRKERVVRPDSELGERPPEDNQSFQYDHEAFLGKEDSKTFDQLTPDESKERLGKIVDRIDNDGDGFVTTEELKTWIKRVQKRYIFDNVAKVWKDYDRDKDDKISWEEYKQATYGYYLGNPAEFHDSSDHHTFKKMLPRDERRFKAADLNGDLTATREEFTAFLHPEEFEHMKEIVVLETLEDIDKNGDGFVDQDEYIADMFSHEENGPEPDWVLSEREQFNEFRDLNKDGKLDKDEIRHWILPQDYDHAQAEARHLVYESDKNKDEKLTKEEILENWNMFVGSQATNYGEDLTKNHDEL

DNAJA3 = target: T3, DNAJA3 (human, UniProt Q96EY1-2 66-453, limits assumed)
T3 construct: also called NP_001128582.1 (+1)
T3 sequence (looked up): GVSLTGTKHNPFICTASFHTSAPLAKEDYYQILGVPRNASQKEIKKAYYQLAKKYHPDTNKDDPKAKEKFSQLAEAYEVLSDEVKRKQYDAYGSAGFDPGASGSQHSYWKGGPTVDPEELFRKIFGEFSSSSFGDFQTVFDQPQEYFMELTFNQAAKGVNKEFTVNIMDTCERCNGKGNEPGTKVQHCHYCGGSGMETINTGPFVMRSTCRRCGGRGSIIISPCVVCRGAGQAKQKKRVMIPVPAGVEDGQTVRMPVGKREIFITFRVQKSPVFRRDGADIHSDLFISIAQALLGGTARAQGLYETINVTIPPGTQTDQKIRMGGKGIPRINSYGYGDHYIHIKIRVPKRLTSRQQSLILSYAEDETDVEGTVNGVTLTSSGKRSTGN

SLC25A22 = target: T4, SLC25A22 (human, UniProt Q9H936 1-323)
T4 construct: also called NP_001177990.1
T4 sequence (looked up): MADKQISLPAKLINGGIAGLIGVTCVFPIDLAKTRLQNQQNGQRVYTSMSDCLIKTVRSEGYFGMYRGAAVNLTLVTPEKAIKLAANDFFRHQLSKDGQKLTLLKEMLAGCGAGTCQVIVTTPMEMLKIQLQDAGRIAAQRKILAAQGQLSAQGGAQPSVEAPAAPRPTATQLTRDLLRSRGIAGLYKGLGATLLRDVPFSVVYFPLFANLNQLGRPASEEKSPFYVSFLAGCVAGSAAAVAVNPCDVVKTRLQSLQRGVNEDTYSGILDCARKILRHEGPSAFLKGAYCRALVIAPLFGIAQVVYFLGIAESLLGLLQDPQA

Measured: co-IP mass spectrometry count

B1: N-terminal FLAG tagged B3GNT2 (enzyme, human, UniProt Q9NY97 1-397, looked up)
chain: MSVGRRRIKLLGILMMANVFIYFIMEVSKSSSQEKNGKGEVIIPKEKFWKISTPPEAYWNREQEKLNRQYNPILSMLTNQTGEAGRLSNISHLNYCEPDLRVTSVVTGFNNLPDRFKDFLLYLRCRNYSLLIDQPDKCAKKPFLLLAIKSLTPHFARRQAIRESWGQESNAGNQTVVRVFLLGQTPPEDNHPDLSDMLKFESEKHQDILMWNYRDTFFNLSLKEVLFLRWVSTSCPDTEFVFKGDDDVFVNTHHILNYLNSLSKTKAKDLFIGDVIHNAGPHRDKKLKYYIPEVVYSGLYPPYAGGGGFLYSGHLALRLYHITDQVHLYPIDDVYTGMCLQKLGLVPEKHKGFRTFDIEEKNKNNICSYVDLMLVHSRKPQEMIDIWSQLQSAHLKC
notes: Bait of the co-IP; pulled down from cell lysate with mouse anti-FLAG antibody; also called N-FLAG B3GNT2; N-term FLAG; not shown: N-terminal FLAG tag
0: all assays above
